From US20230416396A1 (Regeneron, published 2023)

Assays:
human 4-1BB on cells [1] = target: T1, human 4-1BB on cells (human, UniProt Q07011 24-255); test: cell-based or functional assay
human 4-1BB on cells [2] = target: T1, human 4-1BB on cells; test: cell-based or functional assay; remark: listed apart in the source
human 4-1BB on cells [3] = target: T1, human 4-1BB on cells; test: cell-based or functional assay; remark: listed apart in the source
human 4-1BB on cells [4] = target: T1, human 4-1BB on cells; test: cell-based or functional assay; remark: listed apart in the source
human 4-1BB on cells [5] = target: T1, human 4-1BB on cells; test: cell-based or functional assay; remark: listed apart in the source
[6] = target: T2, human CD38 endogenously expressed on MOLP8 cells (human, UniProt P28907 1-300); test: flow cytometry on MOLP8 cells (endogenous hCD38), APC anti-human secondary
T2 construct: whole, on cells; also called hCD38
Experimental: The ability of the multispecific antigen binding molecules to bind cells was assessed using flow cytometry. Cell lines were chosen to determine the ability of both the anti-CD38 and anti-4-1BB arms to bind their targets. […] Binding was detected by using a labeled secondary antibody and measuring fluorescence on a flow cytometer.
HEK293 cells were lifted with trypsin, washed and resuspend in stain buffer (2% FBS in PBS). MOLP8 cells were washed and resuspended in stain buffer. Cells were added to wells of a 96 well V-bottom plate (3×10⁵ cells/well). A 1:4, 9-point, dose titration of test antibodies was diluted in stain buffer and added to cells to a final concentration ranging from 610 fM to 10 nM (a “no antibody” control was included as the ninth point (153fM), labeled as “secondary only”). Cells and antibodies were incubated for 30 min on ice and then washed in stain buffer. Cells were resuspended in 2 ug/ml allophycocyanin (APC) conjugated goat-anti human secondary antibody and incubated for 30 min on ice. Cells were then washed and resuspended in viability dye (according to the manufacturer's protocol) and incubated for 30 min on ice. Cells were then washed with stain buffer and resuspended in 2% PFA for 30 min on ice. After washing, cells were filtered and analyzed by flow cytometry to determine the geometric mean fluorescence intensity (gMFI), which was subsequently plotted using GraphPad Prism software. EC₅₀ values of the antibodies were determined from a 4-parameter logistic equation over a 9-point dose response curve (including secondary only control, representing the ninth point).

[7] = target: T3, human 4-1BB expressed with a C-terminal myc-myc-hexahistidine tag (human, UniProt Q07011 24-186); test: SPR Biacore 8k, antibody captured by anti-human Fc, h4-1BB.mmH as analyte, 25 C
T3 construct: also called h4-1BB.mmH; REGN3584; not shown: C-terminal myc-myc-hexahistidine tag
T3 sequence (Q07011 24-186 limits assumed): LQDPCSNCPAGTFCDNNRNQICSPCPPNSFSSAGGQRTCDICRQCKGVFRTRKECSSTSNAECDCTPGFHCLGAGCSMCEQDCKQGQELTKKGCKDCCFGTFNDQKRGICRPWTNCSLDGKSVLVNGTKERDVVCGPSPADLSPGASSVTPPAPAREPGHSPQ
Method in brief: (§1)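 Antibodies captured on anti-human Fc CM5 surface; h4-1BB analyte binding in HBS-EP pH 7.4 at 25° C., association 5 min, dissociation 10 min. ka and kd from 1:1 fit of sensorgrams; KD and t½ calculated from rate constants.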

[8] = target: T4, human 4-1BB expressed with a C-terminal murine Fc tag (human, UniProt Q07011 24-186); test: SPR Biacore 8k, antibody captured by anti-human Fc, h4-1BB.mFc as analyte, 25 C
T4 construct: also called h4-1BB.mFc; REGN3585; not shown: C-terminal murine Fc tag
T4 sequence (Q07011 24-186 limits assumed): as above
Method in brief: as §1

[9] = target: T4, human 4-1BB expressed with a C-terminal …; test: SPR Biacore 4000, h4-1BB.mFc captured by anti-mouse Fc, antibody as analyte, 25 C
Method in brief: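 Antibody analyte injected at 100 to 6.25 nM (4-fold dilutions) over captured h4-1BB.mFc in HBS-EP pH 7.4 at 30 μL/min and 25° C, with 5 min association and 10 min dissociation. ka and kd from 1:1 model fits of sensorgrams; KD and t½ calculated from the rate constants.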

T1 sequence (Q07011 24-255): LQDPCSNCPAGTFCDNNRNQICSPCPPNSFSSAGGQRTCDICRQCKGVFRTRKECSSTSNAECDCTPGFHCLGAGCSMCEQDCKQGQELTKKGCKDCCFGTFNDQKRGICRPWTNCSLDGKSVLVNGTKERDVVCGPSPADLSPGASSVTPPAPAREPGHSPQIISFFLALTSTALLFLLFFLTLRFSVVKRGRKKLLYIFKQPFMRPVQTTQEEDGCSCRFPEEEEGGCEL

B1: REGN7647 (bispecific antibody, human IgG4 S228P, kappa)
heavy 1: EVQLVESGGGLVQPGRSLRLSCGASGFTFDDYVMHWVRQIPGKGLEWVAGISWNSGSIGYADSVKGRFTISRDNAKNSLYLQMNSLRAEDTALYFCAKDHIDPYSSSLYYYYGMDVWGQGTTVTVSSASTKGPSVFPLAPCSRSTSESTAALGCLVKDYFPEPVTVSWNSGALTSGVHTFPAVLQSSGLYSLSSVVTVPSSSLGTKTYTCNVDHKPSNTKVDKRVESKYGPPGGGGSGGGGSGGGGSEVQLVESGGGLVQPGRSLRLSCGASGFTFDDYVMHWVRQIPGKGLEWVAGISWNSGSIGYADSVKGRFTISRDNAKNSLYLQMNSLRAEDTALYFCAKDHIDPYSSSLYYYYGMDVWGQGTTVTVSSASTKGPSVFPLAPCSRSTSESTAALGCLVKDYFPEPVTVSWNSGALTSGVHTFPAVLQSSGLYSLSSVVTVPSSSLGTKTYTCNVDHKPSNTKVDKRVESKYGPPCPPCPAPPVAGPSVFLFPPKPKDTLMISRTPEVTCVVVDVSQEDPEVQFNWYVDGVEVHNAKTKPREEQFNSTYRVVSVLTVLHQDWLNGKEYKCKVSNKGLPSSIEKTISKAKGQPREPQVYTLPPSQEEMTKNQVSLTCLVKGFYPSDIAVEWESNGQPENNYKTTPPVLDSDGSFFLYSRLTVDKSRWQEGNVFSCSVMHEALHNRFTQKSLSLSPGK
heavy 2: EVQLVESGGGLVQPGRSLRLSCAASGFTFDDYAMHWVRQAPGKGLEWVSGISWKSDNIGYADSVKGRFTISRDNAKNSLYLQMNSLRAEDTALYYCAKALGGWKFDYYYGMDVWGQGTTVTVSSASTKGPSVFPLAPCSRSTSESTAALGCLVKDYFPEPVTVSWNSGALTSGVHTFPAVLQSSGLYSLSSVVTVPSSSLGTKTYTCNVDHKPSNTKVDKRVESKYGPPCPPCPAPPVAGPSVFLFPPKPKDTLMISRTPEVTCVVVDVSQEDPEVQFNWYVDGVEVHNAKTKPREEQFNSTYRVVSVLTVLHQDWLNGKEYKCKVSNKGLPSSIEKTISKAKGQPREPQVYTLPPSQEEMTKNQVSLTCLVKGFYPSDIAVEWESNGQPENNYKTTPPVLDSDGSFFLYSRLTVDKSRWQEGNVFSCSVMHEALHNHYTQKSLSLSLGK
light: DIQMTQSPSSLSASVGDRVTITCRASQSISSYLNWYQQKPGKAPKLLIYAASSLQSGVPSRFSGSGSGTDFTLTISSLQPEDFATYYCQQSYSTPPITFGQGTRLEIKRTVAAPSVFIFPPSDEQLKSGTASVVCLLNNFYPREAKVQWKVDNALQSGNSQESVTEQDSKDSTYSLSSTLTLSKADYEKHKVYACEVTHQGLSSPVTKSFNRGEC
notes: 1+2 format, hIgG4P-PVA; The linker between the two 4-1BB Fabs is (G4S)3v15; also called CD38x4-1BB (1 + 2), (G4S)3v15; 26812P2 x 35333P2 (IN) + 35333P2 (OUT)
EC50 of IL-2 release, T cells + HEK293/CD20/CD38 + REGN2281 (human 4-1BB on cells [1]): 0.0535 nM | EC50 of IL-2 release, T cells + MOLP-8 + REGN5458 (human 4-1BB on cells [1]): 0.216 nM | EC50 of IL-2 release, T cells + NALM-6 (human 4-1BB on cells [1]): 0.0485 nM | MAX IL-2 release, T cells + HEK293/CD20 + REGN2281 (human 4-1BB on cells [1]): 61 pg/mL | MAX IL-2 release, T cells + HEK293/CD20/CD38 + REGN2281 (human 4-1BB on cells [1]): 781 pg/mL | MAX IL-2 release, T cells + MOLP-8 + IsoC (human 4-1BB on cells [1]): 73 pg/mL | MAX IL-2 release, T cells + MOLP-8 + REGN5458 (human 4-1BB on cells [1]): 66 pg/mL | MAX IL-2 release, T cells + NALM-6 (human 4-1BB on cells [1]): 192 pg/mL | EC50 of IFNγ release, T cells + HEK293/CD20/CD38 + REGN2281 (human 4-1BB on cells [2]): 0.0617 nM | EC50 of IFNγ release, T cells + MOLP-8 + REGN5458 (human 4-1BB on cells [2]): 0.0707 nM | EC50 of IFNγ release, T cells + NALM-6 (human 4-1BB on cells [2]): 0.0703 nM | MAX IFNγ release, T cells + HEK293/CD20 + REGN2281 (human 4-1BB on cells [2]): 1910 pg/mL | MAX IFNγ release, T cells + HEK293/CD20/CD38 + REGN2281 (human 4-1BB on cells [2]): 6050 pg/mL | MAX IFNγ release, T cells + MOLP-8 + IsoC (human 4-1BB on cells [2]): 103 pg/mL | MAX IFNγ release, T cells + MOLP-8 + REGN5458 (human 4-1BB on cells [2]): 3280 pg/mL | MAX IFNγ release, T cells + NALM-6 (human 4-1BB on cells [2]): 655 pg/mL | EC50 of luciferase activity, HEK293/NFkB-Luc/h4-1BB reporter + OPM2 (human 4-1BB on cells [3]): 0.00735 nM | MAX luciferase activity, HEK293/NFkB-Luc/h4-1BB reporter + HEK293/CD20 (human 4-1BB on cells [3]): 1.2e+06 RLU | MAX luciferase activity, HEK293/NFkB-Luc/h4-1BB reporter + HEK293/CD20/CD38 (human 4-1BB on cells [3]): 2.4e+06 RLU | MAX luciferase activity, HEK293/NFkB-Luc/h4-1BB reporter + MOLP-8 (human 4-1BB on cells [3]): 2.3e+06 RLU | MAX luciferase activity, HEK293/NFkB-Luc/h4-1BB reporter + OPM2 (human 4-1BB on cells [3]): 1.9e+06 RLU | EC50 of IL-2 release, T cells + NALM6 + Cemiplimab (human 4-1BB on cells [4]): 0.0477 nM | EC50 of IL-2 release, T cells + NALM6 + IgG4P (human 4-1BB on cells [4]): 0.0579 nM | EC50 of IL-2 release, T cells + NALM6/PD-L1 + Cemiplimab (human 4-1BB on cells [4]): 0.0911 nM | EC50 of IL-2 release, T cells + NALM6/PD-L1 + IgG4P (human 4-1BB on cells [4]): 0.117 nM | EC50 of IFNγ release, T cells + NALM-6 + IgG4P (human 4-1BB on cells [5]): 0.0815 nM | MAX gMFI [6]: 120000 gMFI | 100 nM h4-1BB.mmH Bind (RU) [7]: 86.1 RU | Kd [7]: 16.5 nM | koff [7]: 0.00533 s⁻¹ | kon [7]: 324000 M⁻¹ s⁻¹ | t½ [7]: 2.2 min | 100 nM h4-1BB.mFc Bind (RU) [8]: 224 RU | Kd [8]: 1.18 nM | koff [8]: 0.000231 s⁻¹ | kon [8]: 195000 M⁻¹ s⁻¹ | t½ [8]: 50 min | 100 nM Ab Bind (RU) [9]: 206 RU | Kd [9]: 0.56 nM | koff [9]: 0.000351 s⁻¹ | kon [9]: 626000 M⁻¹ s⁻¹ | t½ [9]: 32.9 min
